According to patent CN111196852A (SICHUAN KELUN BOTAI BIOMEDICAL CO LTD; ANYUAN MEDICINE TECH …, dated 2020):

Tests used:
人TIGIT-His = biological target: T1, 人TIGIT-His (human, UniProt Q495A1 22-141, limits assumed); experiment: BLI (ForteBio Octet QK), Human TIGIT(His tag) on Ni-NTA sensor, antibody 3.125-100 nM; order of magnitude only
T1 construct: Loaded on Ni-NTA sensors in the BLI runs; also called Human TIGIT(His tag); not shown: His tag
T1 sequence (looked up): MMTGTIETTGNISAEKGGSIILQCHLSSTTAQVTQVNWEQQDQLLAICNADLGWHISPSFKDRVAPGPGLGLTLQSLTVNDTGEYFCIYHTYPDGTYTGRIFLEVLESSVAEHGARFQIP

人TIGIT = biological target: T2, 人TIGIT (human, UniProt Q495A1 22-141, limits assumed); experiment: ELISA, human TIGIT coated, HRP goat anti-mouse IgG
T2 construct: also called 人TIGIT抗原
T2 sequence (looked up): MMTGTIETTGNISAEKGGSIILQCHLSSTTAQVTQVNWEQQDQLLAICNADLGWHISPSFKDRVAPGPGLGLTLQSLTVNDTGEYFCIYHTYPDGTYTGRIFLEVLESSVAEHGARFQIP

| Binder | Kd (人TIGIT-His) | EC50 (人TIGIT) |
| --- | --- | --- |
| 鼠单克隆抗体Mab7 (antibody, mouse IgG1, V domains shown, Mouse IgG1 (Kappa), purified from hybridoma #7 on protein G; also called 杂交瘤细胞株#7) VH: QVQLQQSGAELVSPGTSVKVSCKASGYAFTNYLIEWIYQRPGQGLEWIGVINPGSGGTIYNEKFKGKATLTADKSSNIAYLQLSSLTSDDSAVYFCAGSYGSSYTFDYWGQGTTLTVSS VL: DIVMTQSHKFLSTSVGDSVSITCKASQHVSTAVVWYQQKPGQSPKLLIYSPSYRYTGVPDRFTGSGSGTDFTFTISSVQAEDLAVYYCHQHYSTPWTFGGGTKLEIKR | ~0.001 nM | ~0.018 nM |
| 鼠单克隆抗体Mab21 (antibody, mouse IgG2b, V domains shown, Mouse IgG2b (Kappa), purified from hybridoma #21 on protein G; also called 杂交瘤细胞株#21) VH: EVQLQQSGAELVKPGASVRLSCTASGFNIKDTYINWVKQRPEQGLEWIGRIDPANGDTKYAPKFQGKATITTDTSSNTAYLQLSSLTSEDTAVYYCPKSGDYGWYFDVWGAGTTVTVSS VL: DIVLTQSPASLSVTPGDSVSLSCRASQSISNNLHWYQQKSHESPRLLIKYASQSISGIPSRFSGSGSGTYFTLSINSVETEDFGMYFCQQSNSWLTFGAGTKLELKR | ~0.01 nM | ~0.018 nM |
